This passage reports protein stability index results from the supplement of paper PMC10567573.

± gives the standard deviation.

This data set in a line: protein stability index of a GFP-peptide fusion (GPS, HEK-293T) (PSI 1-6); higher = more stable.
[1] abbreviates: treatment: DMSO, c terminus: a fixed tail appended.
Setting [2] is: treatment: MLN4924 1 uM, 8 h, c terminus: a fixed tail appended.
Setting [3] is: treatment: DMSO, c terminus: native.
Where [4] appears, read: treatment: MLN4924 1 uM, 8 h, c terminus: native.
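Also: 24-mer peptide tiles fused after GFP, lentivirally expressed, FACS-sorted into six equal bins by GFP/DsRed ratio, decoded by Illumina sequencing, PSI is the read-weighted mean bin number.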

Consider EIKLVSDVTADSKVLEALKLKGAE [PLD5], for which the protein stability index came out at 4.31 ± 0.41 under setting [1] and 4.34 ± 0.51 under setting [2].
EKAFSYRQMAFDFARVKKGADGVM [SNAP91]: the protein stability index is, setting by setting: under setting [1], 2.67 ± 0.16; under setting [2], 2.86 ± 0.31.
In the case of EKQELHRNMLGLLGNVAEVKELRP [ZER1], the protein stability index by setting is: under setting [1], 3.74 ± 0.16; under setting [2], 4.04 ± 0.31.
With ELAEHRCHPVERGIKSKEAEEYRL [PSD2], the protein stability index was 4.89 ± 0.25 under setting [1] and 4.64 ± 0.36 under setting [2].
For ELDAIIEEVDEDGSGTIDFEEFLV [TNNC2], the protein stability index was found to be 4.4 ± 0.22 under setting [1] and 4.33 ± 0.23 under setting [2].
ELERAQHELLLGSLQQQHQADLEL [FBF1]: the protein stability index is 4.15 ± 0.21 under setting [1] and 4.49 ± 0.28 under setting [2].
ELGKGAFSVVRRCMKIPTGQEYAA [CAMK2D]: the protein stability index is, setting by setting: under setting [1], 2.46 ± 0.21; under setting [2], 2.2 ± 0.29.
For ELKLGRKVPESLVRSLRGEEPVPR [LURAP1L], in that order: 3.85 ± 0.25 and 4.16 ± 0.33.
For ELREACDYLCISFEYSTIKCRDLS [BTBD10], in that order: 3.06 ± 0.21 and 3.13 ± 1.
With ELWIYNMETGRWKKINTEGDVPPS [KLHDC2], the protein stability index turned out to be 3.43 ± 0.2 under setting [1] and 3.61 ± 0.27 under setting [2].
In the case of EMEEELRYAPLSFRNPMMSKLRNY [VTI1B], the protein stability index came out at 2.78 ± 0.28 under setting [1] and 3.01 ± 0.25 under setting [2].
Turning to EMRFAKMPDEPVEAPALPAPAAPM [BRD3], the protein stability index reads like this: under setting [1], 4.66 ± 0.078; under setting [2], 4.8 ± 0.24.
With ENHPQESKGQPRSQEESEEGEEDA [CHGB], the protein stability index runs as follows: under setting [1], 5.79 ± 0.094; under setting [2], 5.64 ± 0.22.
For EPPKPTFPAYTQSTASTTSTTNST [ZNF207], in that order: 5.39 ± 0.3 and 5.04 ± 0.21.
For EPSELDNPFQDPAVIQHRPSRQYA [SCAMP3], in that order: 4.67 ± 0.22 and 4.77 ± 0.13.
Turning to EQLSGAGYRVSAALEEADKMFLRT [EID1], the protein stability index was found to be 3.72 ± 0.22 under setting [1] and 4.1 ± 0.43 under setting [2].
For ERCSDSDEEKKARRGRSPKGEFKD [CLINT1], in that order: 5.43 ± 0.27 and 5.3 ± 0.51.
For EREKVTPLMVKGFRDAAEEGGTAV [SEPHS2], in that order: 5.24 ± 0.18 and 5.12 ± 0.16.
Take ERHTMDLTVEGFQSWMWRGLTFLL [TMEM120A]: the protein stability index is, setting by setting: under setting [1], 2.11 ± 0.41; under setting [2], 2.28 ± 0.092.
For ERLNKEYQEIFQQLQRSWVKMDQK [TRIM43], in that order: 3.23 ± 0.3 and 3.39 ± 0.55.
As to ERPAQRDCSFPGLPRHQDQPHHQP [TRAF3IP2], the protein stability index was 4.72 ± 0.15 under setting [1] and 4.64 ± 0.28 under setting [2].
For ERQLKVMASDHREALLDRESENAS [LRRC45], in that order: 5.41 ± 0.3 and 5.33 ± 0.18.
For ESDSQGQGNGLFYSSGPQSWYPKA [ZC2HC1C], in that order: 3.62 ± 0.32 and 3.72 ± 0.34.
For ESGDEVPVELYTAFQHTPTSITLT [KMT2E], in that order: 2.73 ± 0.97 and 3.65 ± 0.62.
As for ESSDDDSEEAPSTSGMGFHAPKIG [SDE2], the protein stability index was 5.51 ± 0.23 under setting [1] and 5.41 ± 0.19 under setting [2].
As for ETDEDEEEGDEQQRLLNTPRRKKL [GMCL1], the protein stability index was 5.6 ± 0.3 under setting [1] and 5.63 ± 0.28 under setting [2].
For ETELSLRQLVEADINGLRRILDEL [KRT36], in that order: 3.12 ± 0.3 and 3.36 ± 0.34.
ETENIIAANHWVLPAAEFHGLWDS [TRIP13]: the protein stability index was found to be 3.28 ± 0.29 under setting [1] and 3.36 ± 0.26 under setting [2].
For ETPGSAVDYPLHDLVLHTNYTATV [TNXB], in that order: 2.83 ± 0.18 and 2.87 ± 0.55.
As for ETTESQQNGEEGTSTPEDKESGQE [SMARCE1], the protein stability index came to 5.61 ± 0.18 under setting [1] and 5.23 ± 0.17 under setting [2].
As to EVLDGVEDAEGEEEEEEEEEEEDD [FKBP8], the protein stability index is, setting by setting: under setting [1], 5.46 ± 0.38; under setting [2], 5.69 ± 0.23.
For EVREPALRPAKRELRGAEPGRPAR [SPSB4], in that order: 4.48 ± 0.39 and 4.9 ± 0.22.
For FCIDSENRIGNSGVEEIKGHPFFE [STK38L], in that order: 2.97 ± 0.58 and 3.03 ± 0.18.
For FEGFQAVSLKQEGDDQPSETDHLS [TPRG1], in that order: 5.51 ± 0.17 and 5.54 ± 0.23.
With FEGMAFLETEQGKPFVSVFRHLRL [GMCL1], the protein stability index is, setting by setting: under setting [1], 2.66 ± 0.58; under setting [2], 2.25 ± 0.31.
For FFFLRMDENYNLLPHGVNFQDAIF [CCDC3], in that order: 2.79 ± 0.43 and 2.97 ± 0.76.
As to FFKGGGSSKSRAAPSPQEALVRLR [CHMP4C], the protein stability index runs as follows: under setting [1], 3.26 ± 0.053; under setting [2], 3.33 ± 0.052.
For FFMTATQYFTNRLDMSQNVSLVTA [SLC29A1], in that order: 3.04 ± 0.4 and 2.92 ± 0.47.
On to FFYPLVEDPYMMGRIACANVLSDL [SEPHS2], for which the protein stability index amounted to 2.38 ± 0.46 under setting [1] and 2.19 ± 0.47 under setting [2].
For FGCEECGKKYNTMLGYKRHLALHA [PLAGL1], in that order: 3.94 ± 0.12 and 3.97 ± 0.27.
For FGGQDENKQTLSSGEKYDPDANTW [GAN], in that order: 5.06 ± 0.074 and 5.01 ± 0.35.
In the case of FGHLINGAIAVFVYASDKEWIRFD [PTGFR], the protein stability index amounted to 3.1 ± 0.29 under setting [1] and 3.1 ± 0.38 under setting [2].
For FGIKCAKCQVGFSSSDLVMRARDS [ISL2], in that order: 2.37 ± 0.32 and 2.54 ± 0.58.
Turning to FHINQTLREAHFHSLQHRGRPLT [FAM104A], the protein stability index was found to be 2.3 ± 0.45 under setting [3] and 2.2 ± 0.29 under setting [4].
FHYLVFDLVTGGELFEDIVAREYY [CAMK2B]: the protein stability index under setting [1] stood at 3.21 ± 0.4 and the protein stability index under setting [2] turned out to be 3.05 ± 1.
Consider FKAHKSVLAARSPVFNAMFEHEME [SPOPL], for which the protein stability index reads like this: under setting [1], 3.17 ± 0.41; under setting [2], 3.17 ± 0.32.
In the case of FKLKPLSNKTATDDTGGKDPRNV [PLD5], the protein stability index is, setting by setting: under setting [3], 4.78 ± 0.17; under setting [4], 4.89 ± 0.19.
For the sequence FKPKLYKGDRGLPLEGSAKGKVQA [RBBP5], the protein stability index reads like this: under setting [1], 3.96 ± 0.44; under setting [2], 3.98 ± 0.27.
FLDLLSVFSDTATPDIKSHYAFRI [CIB1]: the protein stability index under setting [1] worked out at 2.86 ± 0.6 and the protein stability index under setting [2] worked out at 2.85 ± 0.76.
For FLGLFFIVRFLESNWFVWVTQMNH [FADS1], in that order: 3.69 ± 0.72 and 3.25 ± 0.32.
For FLKNTEVSSMECEKNLYWICNKPY [CD69], in that order: 2.32 ± 0.61 and 2.27 ± 0.21.
For the sequence FNMMEQKKRVSMILQSPAFCEELE [ADD1], the protein stability index is, setting by setting: under setting [1], 3.27 ± 0.088; under setting [2], 3.4 ± 0.11.
For FPDLNTYIYYNEKYGGPNHHLPLP [CPN1], in that order: 2.15 ± 0.17 and 2.42 ± 0.096.
Consider FPLMTIEEFAAGPAQSGILSDREV [BTBD1], for which the protein stability index by setting is: under setting [1], 3.83 ± 0.33; under setting [2], 3.98 ± 0.18.
Consider FPSLHQSLPQNQCYMATTKSQTAC [EHMT1], for which the protein stability index amounted to 3.06 ± 0.15 under setting [1] and 3.47 ± 0.2 under setting [2].
For the sequence FQAPCQRCGKFLQDGLPPTWRDFR [MED27], the protein stability index under setting [1] came to 2.56 ± 0.72 and the protein stability index under setting [2] was found to be 2.28 ± 0.33.
In the case of FQGQKTELNNCISMLVAGNDRVQT [TRIM63], the protein stability index turned out to be 3.13 ± 0.15 under setting [1] and 3.41 ± 0.42 under setting [2].
Take FQNAERAFKAAALIQRWYRRYVAR [PPEF2]: the protein stability index under setting [2] is 5.54 ± 0.23.
In the case of FRALKRPLQFLGLFENSLCRLTHI [ZER1], the protein stability index worked out at 2.62 ± 0.4 under setting [1] and 2.46 ± 0.54 under setting [2].
For FSDLNSTRGDADMYDLPKKEDALL [EMD], in that order: 4.77 ± 0.24 and 4.9 ± 0.05.
For FSLRVHTGCHKKLGPEARRPRTRW, the protein stability index came to 2.66 ± 0.28 under setting [1] and 3.06 ± 0.094 under setting [2].
Consider FSVAPHETQTQRGGEFQCGLEAAS [RNF180], for which the protein stability index reads like this: under setting [1], 3.37 ± 0.41; under setting [2], 3.36 ± 0.14.
As to FTEAMTHFPASPFWSVMFFLMLIN [SLC6A17], the protein stability index under setting [1] turned out to be 2.36 ± 0.23 and the protein stability index under setting [2] was 2.14 ± 0.56.
FTKNNFFVEKNPTIVNFPITNVDL [USP39] had a protein stability index under setting [1] of 2.98 ± 0.52 and a protein stability index under setting [2] of 2.7 ± 0.29.
For FVMFLCLADYLVPILAPRIFGSNK [ARL6IP1], the protein stability index is 3.21 ± 0.48 under setting [1] and 3.17 ± 0.62 under setting [2].
The sequence FVQVKGNFARLQTCISELRMLQRE [M1AP] registered a protein stability index under setting [1] of 2.47 ± 0.75 and a protein stability index under setting [2] of 2.11 ± 0.22.
Take FVRGQEFKAHKSVLAARSPVFNAM [SPOPL]: the protein stability index stood at 2.66 ± 0.45 under setting [1] and 2.83 ± 0.34 under setting [2].
Take GACYGDDACFVARHRSADVLGVAD [PPTC7]: the protein stability index amounted to 4.18 ± 0.34 under setting [1] and 4.817 ± 0.045 under setting [2].
Take GAEQPPDLHCVLVTNPHSSQWKDP [GADD45A]: the protein stability index came to 4.29 ± 0.2 under setting [1] and 4.44 ± 0.12 under setting [2].
In turn, GAFDSQSTVKDCATIFALSTMTSS [ATL3] showed a protein stability index under setting [1] of 3.01 ± 0.25 and a protein stability index under setting [2] of 3.19 ± 0.27.
Consider GAIFCPPCYDVRYAPSCAKCKKKI [PDLIM7], for which the protein stability index came to 3.16 ± 0.24 under setting [1] and 3.45 ± 0.34 under setting [2].
For GARAALNEIESRHRELLRLESRIR [STX11], in that order: 3.46 ± 0.26 and 3.72 ± 0.35.
